According to US9006178 (Novo Nordisk, dated 2015):
*1 amine or outer side, *2 acyl side, *3 side chain or, on linkers, in order; H or OH if unused. Where no end group is shown, it is not given here. Side-chain parts run from the residue outwards. [ ]: non-standard residue; d: D form. The star is where a group is joined. Dodecanoyl(12-OPh(4-COOH)) = O=C(O)c1ccc(OCCCCCCCCCCCC(=O)*)cc1; Decanoyl(10-(4-HOOC-PhO)) = O=C(O)c1ccc(OCCCCCCCCCC(=O)*)cc1; C18 diacid = O=C(O)CCCCCCCCCCCCCCCCC(=O)*; C16 diacid = O=C(O)CCCCCCCCCCCCCCC(=O)*; γGlu = O=C(O)[C@H](CCC(=O)[*:2])N[*:1]; Desaminohistidyl = O=C(CCc1c[nH]cn1)*; εLys = N[C@@H](CCCCN[*:1])C(=O)[*:2]; AEEA = NCCOCCOCC(=O)O; Aib = CC(C)(N)C(=O)O

B1: N^ε18-[(2S)-2-amino-6-[[(2S)-2-amino-6-[[(4S)-4-carboxy-4-[10-(4-carboxyphenoxyl)decanoylamino]butanoyl]amino]hexanoyl]amino]hexanoyl], … (peptide)
peptide: H[Aib]EGTFTSDVSK([εLys-εLys-γGlu-Decanoyl(10-(4-HOOC-PhO))])YLEGQAAK([εLys-εLys-γGlu-Decanoyl(10-(4-HOOC-PhO))])EFIAWLVQGRG
notes: Double-acylated GLP-1 analogue; positions are counted with His as no
B2: N^ε18-[(2S)-2-amino-6-[[(2S)-2-amino-6-[[(4S)-4-carboxy-4-(15-carboxypentadecanoylamino)butanoyl]amino]hexanoyl]amino]hexanoyl], … (peptide)
peptide: H[Aib]EGTFTSDVSK([εLys-εLys-γGlu-C16 diacid])YLEGQAAK([εLys-εLys-γGlu-C16 diacid])EFIAWLVQGRG
notes: as for B1
B3: N^ε18-[(2S)-2-amino-6-[[(2S)-2-amino-6-[[(4S)-4-carboxy-4-(17-carboxyheptadecanoylamino)butanoyl]amino]hexanoyl]amino]hexanoyl], … (peptide)
peptide: H[Aib]EGTFTSDVSK([εLys-εLys-γGlu-C18 diacid])YLEGQAAK([εLys-εLys-γGlu-C18 diacid])EFIAWLVQGRG
notes: as for B1
B4: N^ε18-[(2S)-2-amino-6-[[(4S)-4-carboxy-4-(15-carboxypentadecanoylamino)butanoyl]amino]hexanoyl], … (peptide)
peptide: H[Aib]EGTFTSDVSK([εLys-γGlu-C16 diacid])YLEGQAAK([εLys-γGlu-C16 diacid])EFIAWLVQGRG
notes: as for B1
B5: N^ε18-[(2S)-2-amino-6-[[2-[2-[2-(15-carboxypentadecanoylamino)ethoxy]ethoxy]acetyl]amino]hexanoyl], … (peptide)
peptide: H[Aib]EGTFTSDVSK([εLys-AEEA-C16 diacid])YLEGQAAK([εLys-AEEA-C16 diacid])EFIAWLVQGRG
notes: as for B1
B6: N^ε18-[(2S)-2-amino-6-[[2-[2-[2-[[(4S)-4-carboxy-4-(15-carboxypentadecanoylamino)butanoyl]amino]ethoxy]ethoxy]acetyl]amino]hexanoyl], … (peptide)
peptide: H[Aib]EGTFTSDVSK([εLys-AEEA-γGlu-C16 diacid])YLEGQAAK([εLys-AEEA-γGlu-C16 diacid])EFIAWLVQGRG
notes: as for B1
B7: N^ε18-[(2S)-2-amino-6-[[2-[2-[2-[[2-[2-[2-[[(4S)-4-carboxy-4-[12-(4-carboxyphenoxy)dodecanoylamino]butanoyl]amino]ethoxy]ethoxy]acetyl]amino]ethoxy]ethoxy]acety … (peptide)
peptide: H[Aib]EGTFTSDVSK([εLys-AEEA-AEEA-γGlu-Dodecanoyl(12-OPh(4-COOH))])YLEGQAAK([εLys-AEEA-AEEA-γGlu-Dodecanoyl(12-OPh(4-COOH))])EFIAWLVQGRG
notes: as for B1
B8: N^ε18-[2-[2-[2-[[(2S)-2-amino-6-[[2-[2-[2-[[(4S)-4-carboxy-4-[10-(4-carboxyphenoxyl)decanoylamino]butanoyl]amino]ethoxy]ethoxy]acetyl]amino]hexanoyl]amino]ethox … (peptide)
peptide: [Desaminohistidyl][Aib]EGTFTSDVSK([AEEA-εLys-AEEA-γGlu-Decanoyl(10-(4-HOOC-PhO))])YLEEQAAK([AEEA-εLys-AEEA-γGlu-Decanoyl(10-(4-HOOC-PhO))])EFIAWLVQGRG
notes: Double-acylated GLP-1 analogue; positions are counted with residue 1 of the entry as no
B9: N^ε18-[2-[2-[2-[[(2S)-2-amino-6-[[2-[2-[2-[[(4S)-4-carboxy-4-[10-(4-carboxyphenoxyl)decanoylamino]butanoyl]amino]ethoxy]ethoxy]acetyl]amino]hexanoyl]amino]ethox … (peptide)
peptide: [Desaminohistidyl]AEGTFTSDVSK([AEEA-εLys-AEEA-γGlu-Decanoyl(10-(4-HOOC-PhO))])YLEEQAVREFIAK([AEEA-εLys-AEEA-γGlu-Decanoyl(10-(4-HOOC-PhO))])LVRGRG
notes: as for B8
B10: N^ε18-[(2S)-2-amino-6-[[(2S)-2-amino-6-[[(4S)-4-carboxy-4-[12-(4-carboxyphenoxy)dodecanoylamino]butanoyl]amino]hexanoyl]amino]hexanoyl], … (peptide)
peptide: H[Aib]EGTFTSDVSK([εLys-εLys-γGlu-Dodecanoyl(12-OPh(4-COOH))])YLEGQAAK([εLys-εLys-γGlu-Dodecanoyl(12-OPh(4-COOH))])EFIAWLVQGRG
notes: as for B1

Tests used:
human GLP-1 receptor [1] = target: T1, human GLP-1 receptor (human, UniProt P43220 24-463); experiment: SPA displacement of [125I]-GLP-1(7-36)NH2 from human GLP-1 receptor membranes, low albumin (0.005% HSA)
T1 construct: whole, on cells; also called hGLP-1
Experimental: (§1) 25 ul (microliter) of test compounds are added to Optiplate. HSA ("high albumin" experiment containing 2% HSA), or buffer ("low albumin" experiment containing 0.005% HSA), was added (50 ul). 5-10 ug protein/sample was added (50 ul) corresponding to 0.1-0.2 mg protein/ml (to be preferably optimised for each membrane preparation). SPA-particles (Wheatgerm agglutinin SPA beads, Perkin Elmer, #RPNQ0001) were added in an amount of 0.5 mg/well (50 ul). […] The plates were sealed with PlateSealer and incubated for 120 minutes at 30° C. while shaking. The plates were centrifuged (1500 rpm, 10 min) and counted in Topcounter.

human GLP-1 receptor [2] = target: T1, human GLP-1 receptor; experiment: SPA displacement of [125I]-GLP-1(7-36)NH2 from human GLP-1 receptor membranes; IC50 at 2.0% HSA divided by IC50 at 0.005% HSA
Experimental: as §1

Row | Molecule | IC50 (human GLP-1 receptor [1]) | ratio [(IC50/nM) high HSA]/[(IC50/nM) low HSA] (human GLP-1 receptor [2])
1 | N^ε18-[(2S)-2-amino-6-[[2-[2-[2-[[(4S)-4-carboxy-4-(13-carboxytridecanoylamino)butanoyl]amino]ethoxy]ethoxy]acetyl]amino]hexanoyl], N^ε26-[(2S)-2-amino-6-[[2-[2-[2-[[(4S)-4-carboxy-4-(13-carboxytridecanoylamino)butanoyl]amino]ethoxy]ethoxy]acetyl]amino]hexanoyl]-[Lys^18,Glu^22,Gln^34] (SEQ ID NO: 11)-GLP-1-(7-37)-peptide | < 35 nM | 
2 | N^ε18-[(2S)-2-amino-6-[[(2S)-2-amino-6-[[(4S)-4-carboxy-4-[8-[10-(4-carboxyphenoxyl)decanoylamino]octanoylamino]butanoyl]amino]hexanoyl]amino]hexanoyl], N^ε26-[(2S)-2-amino-6-[[(2S)-2-amino-6-[[(4S)-4-carboxy-4-[8-[10-(4-carboxyphenoxyl)decanoylamino]octanoylamino]butanoyl]amino]hexanoyl]amino]hexanoyl]-[Aib^8,Lys^18,Glu^22,Gln^34] (SEQ ID NO: 9)-GLP-1-(7-37)-peptide | < 35 nM | 
3 | N^ε18-[(2S)-2-amino-6-[[(4S)-4-carboxy-4-(13-carboxytridecanoylamino)butanoyl]amino]hexanoyl], N^ε26-[(2S)-2-amino-6-[[(4S)-4-carboxy-4-(13-carboxytridecanoylamino)butanoyl]amino]hexanoyl]-[Lys^8,Glu^22,Gln^34] (SEQ ID NO: 11)-GLP-1-(7-37)-peptide | < 35 nM | 
4 | N^ε18-[(2S)-2-amino-6-[[(2S)-2-amino-6-[[(4S)-4-carboxy-4-[10-(4-carboxyphenoxyl)decanoylamino]butanoyl]amino]hexanoyl]amino]hexanoyl], N^ε26-[(2S)-2-amino-6-[[(2S)-2-amino-6-[[(4S)-4-carboxy-4-[10-(4-carboxyphenoxyl)decanoylamino]butanoyl]amino]hexanoyl]amino]hexanoyl]-[Aib^8,Lys^18,Glu^22,Gln^34] (SEQ ID NO: 9)-GLP-1-(7-37)-peptide | < 35 nM | 
5 | B1 | < 35 nM | > 10
6 | H[Aib]EGTFTSDVSK([εLys-εLys-γGlu-Decanoyl(10-(4-HOOC-PhO))])QLEEQAAK([εLys-εLys-γGlu-Decanoyl(10-(4-HOOC-PhO))])EFIAWLVQGRG | < 35 nM | > 10
7 | B2 | < 35 nM | > 10
8 | B3 | < 35 nM | > 10
9 | B4 | < 35 nM | > 10
10 | B5 | < 35 nM | > 10
11 | B6 | < 35 nM | > 10
12 | B7 | < 35 nM | > 10
13 | B8 | < 35 nM | > 10
14 | B9 | < 35 nM | > 10
15 | B10 | < 35 nM | > 10
